In the Human Domainome abundance scans (Beltran et al. 2025):
± gives the uncertainty stated by the source.

B1: Death-inducer obliterator 1, residues 263 to 321; numbered along this chain, Q9BTC0 (parent)
chain: GYDPNALYCICRQPHNNRFMICCDRCEEWFHGDCVGISEARGRLLERNGEDYICPNCTI

Variants of: B1
Assay: abundance fitness (aPCA) (normalised: wild type 0, dead -1); higher = more abundant; growth selection in yeast, the domain comes from the species named
Settings: Homo sapiens

Abundance fitness of substitutions, site by site:
G32: V -0.055 ± 0.059; P -0.155 ± 0.067; D 0.045 ± 0.097; F -0.016 ± 0.1; I 0.169 ± 0.071; E 0.022 ± 0.05; H -0.009 ± 0.13; Y -0.421 ± 0.18; Q -0.054 ± 0.084; T 0.084 ± 0.073; N -0.179 ± 0.1; W 0.05 ± 0.069; L 0.025 ± 0.046; R 0.026 ± 0.05; A 0.067 ± 0.075; M -0.054 ± 0.045; S -0.036 ± 0.045
A40: D -0.019 ± 0.071; P -0.143 ± 0.11; N -0.434 ± 0.28; T -0.077 ± 0.085; Q -0.315 ± 0.14; V -0.146 ± 0.06; G -0.11 ± 0.068; M 0.004 ± 0.082; S -0.022 ± 0.084; R -0.205 ± 0.093; H -0.182 ± 0.25; F -0.262 ± 0.086; C 0.151 ± 0.1; L 0.043 ± 0.05
V35: Y -0.707 ± 0.12; Q -0.183 ± 0.1; G -0.333 ± 0.083; I 0.159 ± 0.066; T -0.095 ± 0.074; R -0.387 ± 0.07; E -0.602 ± 0.1; C -0.113 ± 0.12; P -0.345 ± 0.083; A -0.058 ± 0.07; W -0.61 ± 0.16; M -0.043 ± 0.066; S -0.403 ± 0.069; N -0.171 ± 0.099; F -0.225 ± 0.083; D -0.351 ± 0.094; K -0.407 ± 0.077
H31: K -0.967 ± 0.26; S -0.776 ± 0.09; I -0.67 ± 0.096; C -0.282 ± 0.075; A -0.636 ± 0.1; Q -0.782 ± 0.29; P -1.05 ± 0.22; T -0.956 ± 0.14; V -0.664 ± 0.093; F -0.559 ± 0.12; W -0.507 ± 0.11; L -0.628 ± 0.088; Y -0.732 ± 0.17; D -0.422 ± 0.12; N -0.765 ± 0.14; R -0.584 ± 0.1; M -0.667 ± 0.11; E -0.923 ± 0.22
C23: L -1.03 ± 0.1; H -1 ± 0.24; Q -0.821 ± 0.13; P -0.296 ± 0.11; R -0.792 ± 0.095; W -0.942 ± 0.27; V -1.08 ± 0.11; G -0.864 ± 0.1; S -0.594 ± 0.084; D -0.532 ± 0.22; K -0.408 ± 0.099; M -1.26 ± 0.28; T -0.918 ± 0.14; E -0.966 ± 0.14; Y -1.17 ± 0.17
W29: Y 0.064 ± 0.12; K 0.2 ± 0.12; C 0.045 ± 0.084; M 0.176 ± 0.083; N 0.224 ± 0.14; D 0.025 ± 0.18; A 0.161 ± 0.056; P 0.05 ± 0.071; V 0.252 ± 0.056; T 0.242 ± 0.058; G -0.02 ± 0.067; R 0.173 ± 0.056; H -0.02 ± 0.12; L 0.215 ± 0.049; I 0.225 ± 0.064; E 0.277 ± 0.1; S 0.17 ± 0.042
F30: G -0.269 ± 0.14; L -0.006 ± 0.051; M 0.013 ± 0.048; H 0.004 ± 0.15; E -0.954 ± 0.34; S -0.266 ± 0.054; Y -0.041 ± 0.093; I -0.289 ± 0.1; D -0.749 ± 0.13; K -0.349 ± 0.065; C -0.08 ± 0.081; V -0.327 ± 0.12; N -0.013 ± 0.087; W -0.325 ± 0.12; R -0.306 ± 0.086; Q -0.471 ± 0.15; P -0.711 ± 0.17; T -0.38 ± 0.092; A -0.283 ± 0.086
I37: W 0.061 ± 0.049; T 0.062 ± 0.09; R -0.017 ± 0.057; L -0.054 ± 0.062; Y 0.094 ± 0.086; A -0.127 ± 0.061; F -0.095 ± 0.097; S -0.133 ± 0.072; G -0.122 ± 0.053; M -0.208 ± 0.11; E -0.054 ± 0.07; H -0.076 ± 0.14; D -0.447 ± 0.21; V -0.12 ± 0.072; C -0.113 ± 0.12; Q 0.091 ± 0.066; K 0.168 ± 0.097; P -0.253 ± 0.088
C26: T -0.782 ± 0.16; K -0.863 ± 0.24; M -0.926 ± 0.14; H -0.672 ± 0.21; E -0.632 ± 0.14; W -0.416 ± 0.19; R -1.02 ± 0.16; L -1.03 ± 0.13; Y -0.794 ± 0.13; G -0.72 ± 0.099; Q -0.985 ± 0.25; I -0.578 ± 0.22; A -0.411 ± 0.13; P -0.599 ± 0.17; F -1.06 ± 0.23; D -0.808 ± 0.17
M20: Y -0.304 ± 0.18
E28: M -0.056 ± 0.12; N -0.231 ± 0.17; Q -0.198 ± 0.1; K 0.045 ± 0.065; V 0.015 ± 0.058; W -0.019 ± 0.098; S -0.106 ± 0.057; L -0.055 ± 0.055; D 0.125 ± 0.13; F -0.028 ± 0.07; T 0.065 ± 0.066; H -0.075 ± 0.084; I -0.235 ± 0.12; P -0.742 ± 0.13; C -0.032 ± 0.11; A -0.153 ± 0.076; Y -0.122 ± 0.09
S38: P 0.001 ± 0.065; E -0.146 ± 0.13; H -0.033 ± 0.15; D 0.197 ± 0.081; R -0.13 ± 0.056; V 0.071 ± 0.067; Y -0.193 ± 0.1; M 0.118 ± 0.12; N -0.245 ± 0.34; W -0.109 ± 0.2; T 0.027 ± 0.071; Q -0.251 ± 0.13; K -0.17 ± 0.11; F -0.238 ± 0.13; I 0.155 ± 0.13; L -0.076 ± 0.059; G 0.03 ± 0.1; A -0.053 ± 0.13; C -0.166 ± 0.16
E39: N -0.017 ± 0.073; L -0.055 ± 0.062; Y -0.22 ± 0.098; P -0.257 ± 0.086; M -0.21 ± 0.11; H -0.277 ± 0.22; I -0.226 ± 0.13; A -0.262 ± 0.066; V -0.036 ± 0.061; T -0.213 ± 0.08; G -0.217 ± 0.049; S -0.061 ± 0.066; W -0.143 ± 0.1; F -0.043 ± 0.081; R -0.037 ± 0.074; Q -0.048 ± 0.11; D -0.144 ± 0.084
D33: L -0.047 ± 0.045; W -0.237 ± 0.063; E -0.026 ± 0.077; N -0.259 ± 0.075; Y 0.13 ± 0.082; A -0.154 ± 0.078; K -0.028 ± 0.078; M -0.195 ± 0.08; H -0.101 ± 0.072; P -0.136 ± 0.059; V -0.198 ± 0.054; G -0.027 ± 0.04; C -0.013 ± 0.068; R -0.002 ± 0.052; Q -0.127 ± 0.11; S -0.048 ± 0.059; T 0.008 ± 0.066
C34: H -0.368 ± 0.066; G -0.726 ± 0.28; A -0.68 ± 0.12; E -0.608 ± 0.12; S -0.867 ± 0.11; L -0.805 ± 0.087; Q -0.644 ± 0.098; K -0.763 ± 0.14; F -1.12 ± 0.17; P -0.803 ± 0.12; D -0.376 ± 0.16; R -0.697 ± 0.089; N -0.937 ± 0.15; M -0.831 ± 0.14; T -0.703 ± 0.092; W -1.03 ± 0.2
I21: R -0.156 ± 0.07; W -0.582 ± 0.32; F -0.243 ± 0.083; L -0.051 ± 0.047; D -0.692 ± 0.21; V 0.132 ± 0.068; M -0.104 ± 0.077; T -0.177 ± 0.074; E -0.494 ± 0.16; K -0.04 ± 0.091; Y 0.036 ± 0.094; G -0.575 ± 0.22; A -0.144 ± 0.1; Q -0.164 ± 0.11; H -0.4 ± 0.097
G36: F -0.256 ± 0.12; H -0.111 ± 0.14; L -0.135 ± 0.061; M 0.009 ± 0.062; R -0.072 ± 0.047; S -0.002 ± 0.058; A -0.153 ± 0.089; V -0.173 ± 0.059; I -0.15 ± 0.096; W -0.469 ± 0.1; E 0.057 ± 0.072; Y -0.066 ± 0.069; Q 0.013 ± 0.084; D 0.038 ± 0.082; C -0.122 ± 0.092; P -0.425 ± 0.13
D24: A 0.139 ± 0.054; W -0.227 ± 0.085; M 0.073 ± 0.068; I -0.124 ± 0.12; C 0.048 ± 0.06; N 0.196 ± 0.056; K 0.192 ± 0.062; Y -0.073 ± 0.077; L -0.176 ± 0.059; G 0.166 ± 0.051; E 0.026 ± 0.11; R 0.138 ± 0.056; S -0.092 ± 0.068; V 0.258 ± 0.074; T -0.032 ± 0.076; P 0.082 ± 0.064
E27: S -0.033 ± 0.053; G -0.074 ± 0.072; K 0.237 ± 0.068; R -0.071 ± 0.047; P -0.004 ± 0.082; Q -0.066 ± 0.11; W -0.09 ± 0.076; Y 0.015 ± 0.067; T -0.007 ± 0.067; D 0.012 ± 0.11; V -0.193 ± 0.084; I -0.158 ± 0.072; C -0.237 ± 0.12; L -0.107 ± 0.05
C22: A 0.116 ± 0.09; H 0.056 ± 0.12; R 0.11 ± 0.078; T 0.185 ± 0.062; K 0.058 ± 0.055; G 0.073 ± 0.073; Y 0.12 ± 0.14; P 0.02 ± 0.069; Q 0.075 ± 0.064; W 0.08 ± 0.074; I 0.07 ± 0.063; M 0.102 ± 0.068; N 0.029 ± 0.18; F 0.137 ± 0.12; V 0.269 ± 0.066; S 0.023 ± 0.056; E 0.023 ± 0.096
R25: L -0.057 ± 0.059; M -0.023 ± 0.054; K 0.118 ± 0.065; C -0.191 ± 0.1; D -0.027 ± 0.18; T 0.039 ± 0.096; H -0.032 ± 0.12; E 0.163 ± 0.13; W -0.261 ± 0.1; A 0.125 ± 0.076; F -0.068 ± 0.075; I -0.197 ± 0.11; S -0.019 ± 0.043; N 0.101 ± 0.12; G -0.085 ± 0.075; V 0.063 ± 0.1; P -0.052 ± 0.077; Q 0.124 ± 0.061
